Measured values published in publication doi:10.1101/2025.08.28.672867, “Catalytic pocket of Clr4 (Suv39h) methyltransferase serves as a substrate receptor for Cullin 4-dependent histone H3 ubiquitination” (bioRxiv, 2025).

T1: 6×His-MBP-Raf1 (S. pombe, UniProt O74910 1-638)
T1 construct: Raf1 (Rik1-associated factor 1, DDB2 homolog), S. pombe; Expressed from one bacmid with Raf2, Rik1 and Cul4 and purified with them; A TEV site lies between MBP and Raf1; also called Raf1-MBP; Raf1 (DDB2 homolog); source: Hi5 insect cells (baculovirus), purified (Ni-NTA, amylose, SEC) together with Raf2, Rik1 and Cul4; not shown: His6, N-terminal, kept; MBP, N-terminal, kept
T1 sequence (looked up): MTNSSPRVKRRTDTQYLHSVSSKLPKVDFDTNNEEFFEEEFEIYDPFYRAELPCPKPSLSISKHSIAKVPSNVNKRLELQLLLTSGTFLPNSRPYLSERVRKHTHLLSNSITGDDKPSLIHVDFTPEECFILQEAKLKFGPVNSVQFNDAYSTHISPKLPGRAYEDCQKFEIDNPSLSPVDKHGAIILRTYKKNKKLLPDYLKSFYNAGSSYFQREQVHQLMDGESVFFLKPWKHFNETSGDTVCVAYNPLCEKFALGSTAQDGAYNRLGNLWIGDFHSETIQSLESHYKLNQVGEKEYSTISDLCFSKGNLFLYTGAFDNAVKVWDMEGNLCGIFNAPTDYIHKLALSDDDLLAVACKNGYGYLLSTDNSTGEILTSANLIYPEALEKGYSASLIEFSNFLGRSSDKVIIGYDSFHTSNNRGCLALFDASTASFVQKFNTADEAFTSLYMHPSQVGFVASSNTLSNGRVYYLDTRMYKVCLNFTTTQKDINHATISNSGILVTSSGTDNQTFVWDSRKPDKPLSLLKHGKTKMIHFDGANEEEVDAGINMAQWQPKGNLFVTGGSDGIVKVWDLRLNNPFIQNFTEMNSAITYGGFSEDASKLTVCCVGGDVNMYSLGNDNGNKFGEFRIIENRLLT


Columns and labels:
6×His-MBP-Raf1 = target: T1, 6×His-MBP-Raf1; assay: pull-down; MBP-Raf1 held on amylose resin and incubated with Clr4 FL or fragments (legend: 'MBP pulldown assays of CLRC subunits'); 1:1 molar ratio, 30 min on ice, resin 1 h at 4 °C; wash 20 mM HEPES pH 7.5, 150 mM NaCl, 0.02% Triton X-100; SDS-PAGE; details: both partners purified
[1] = target: T2, CLRC complex lacking Clr4 (CLRC^-Clr4): 6×His-MBP-Raf1, Raf2, Rik1 and Cul4 (S. pombe, UniProt O74910 1-638; O74560 1-636; Q10426 1-1040; O14122 1-734); assay: as above; details: both partners purified
T2 construct: Raf1 (DDB2 homolog), S. pombe; as the chain of m2; Raf2, S. pombe; as the chain of m3; Rik1 (DDB1 homolog), S. pombe; as the chain of m4; Cullin 4, S. pombe; as the chain of m5; also called four-subunit CLRC complex; CLRC minus Clr4; source: Hi5 insect cells (baculovirus, single bacmid), purified (Ni-NTA, amylose, SEC on Superose 6 Increase); not shown: His6, N-terminal, kept; MBP, N-terminal, …
T2 sequence (O74560 whole entry, chain 2 of 3): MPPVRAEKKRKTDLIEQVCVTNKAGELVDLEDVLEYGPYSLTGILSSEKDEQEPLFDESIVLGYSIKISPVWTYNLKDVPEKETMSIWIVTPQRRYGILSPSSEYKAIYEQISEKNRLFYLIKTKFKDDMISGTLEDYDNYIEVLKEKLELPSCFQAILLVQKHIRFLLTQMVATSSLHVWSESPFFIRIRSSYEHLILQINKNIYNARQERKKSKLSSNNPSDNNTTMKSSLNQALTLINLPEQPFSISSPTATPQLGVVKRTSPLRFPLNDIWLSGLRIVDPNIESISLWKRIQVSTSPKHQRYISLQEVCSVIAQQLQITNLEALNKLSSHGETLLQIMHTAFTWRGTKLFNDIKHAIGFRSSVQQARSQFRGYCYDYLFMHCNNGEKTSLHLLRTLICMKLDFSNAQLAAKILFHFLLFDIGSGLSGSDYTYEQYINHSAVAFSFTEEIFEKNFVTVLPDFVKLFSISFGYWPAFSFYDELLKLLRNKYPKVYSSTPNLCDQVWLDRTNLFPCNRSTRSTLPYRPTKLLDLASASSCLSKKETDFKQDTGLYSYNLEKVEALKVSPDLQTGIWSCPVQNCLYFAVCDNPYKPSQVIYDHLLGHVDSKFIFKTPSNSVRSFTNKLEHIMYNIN
T2 sequence (Q10426 whole entry, chain 3 of 3): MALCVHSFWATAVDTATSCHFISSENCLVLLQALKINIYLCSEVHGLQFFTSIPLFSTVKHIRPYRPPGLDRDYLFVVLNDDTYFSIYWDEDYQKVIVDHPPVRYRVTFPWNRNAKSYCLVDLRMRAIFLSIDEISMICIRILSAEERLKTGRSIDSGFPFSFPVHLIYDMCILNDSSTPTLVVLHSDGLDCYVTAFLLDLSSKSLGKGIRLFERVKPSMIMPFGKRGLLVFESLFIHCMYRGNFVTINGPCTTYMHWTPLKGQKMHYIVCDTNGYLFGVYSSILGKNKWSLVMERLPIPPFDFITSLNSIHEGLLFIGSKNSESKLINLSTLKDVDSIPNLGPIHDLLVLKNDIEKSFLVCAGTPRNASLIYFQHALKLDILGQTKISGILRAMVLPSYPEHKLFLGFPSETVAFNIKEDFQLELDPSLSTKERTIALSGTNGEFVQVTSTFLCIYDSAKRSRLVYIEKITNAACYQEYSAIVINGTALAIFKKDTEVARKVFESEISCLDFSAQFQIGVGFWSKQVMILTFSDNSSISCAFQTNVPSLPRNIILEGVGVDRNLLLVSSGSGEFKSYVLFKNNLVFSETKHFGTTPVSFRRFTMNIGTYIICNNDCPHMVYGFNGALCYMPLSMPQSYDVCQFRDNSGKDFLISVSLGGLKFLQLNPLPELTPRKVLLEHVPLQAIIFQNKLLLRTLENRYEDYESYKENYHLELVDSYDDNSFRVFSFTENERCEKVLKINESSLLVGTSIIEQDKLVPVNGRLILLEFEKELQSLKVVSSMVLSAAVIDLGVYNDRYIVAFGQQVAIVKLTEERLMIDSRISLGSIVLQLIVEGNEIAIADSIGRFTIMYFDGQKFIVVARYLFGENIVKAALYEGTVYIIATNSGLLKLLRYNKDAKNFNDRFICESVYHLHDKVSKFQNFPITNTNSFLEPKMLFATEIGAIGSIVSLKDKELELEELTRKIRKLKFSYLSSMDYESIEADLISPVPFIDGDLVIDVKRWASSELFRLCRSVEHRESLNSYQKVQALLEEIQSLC
T2 sequence (O14122 whole entry, chain 4 of 3): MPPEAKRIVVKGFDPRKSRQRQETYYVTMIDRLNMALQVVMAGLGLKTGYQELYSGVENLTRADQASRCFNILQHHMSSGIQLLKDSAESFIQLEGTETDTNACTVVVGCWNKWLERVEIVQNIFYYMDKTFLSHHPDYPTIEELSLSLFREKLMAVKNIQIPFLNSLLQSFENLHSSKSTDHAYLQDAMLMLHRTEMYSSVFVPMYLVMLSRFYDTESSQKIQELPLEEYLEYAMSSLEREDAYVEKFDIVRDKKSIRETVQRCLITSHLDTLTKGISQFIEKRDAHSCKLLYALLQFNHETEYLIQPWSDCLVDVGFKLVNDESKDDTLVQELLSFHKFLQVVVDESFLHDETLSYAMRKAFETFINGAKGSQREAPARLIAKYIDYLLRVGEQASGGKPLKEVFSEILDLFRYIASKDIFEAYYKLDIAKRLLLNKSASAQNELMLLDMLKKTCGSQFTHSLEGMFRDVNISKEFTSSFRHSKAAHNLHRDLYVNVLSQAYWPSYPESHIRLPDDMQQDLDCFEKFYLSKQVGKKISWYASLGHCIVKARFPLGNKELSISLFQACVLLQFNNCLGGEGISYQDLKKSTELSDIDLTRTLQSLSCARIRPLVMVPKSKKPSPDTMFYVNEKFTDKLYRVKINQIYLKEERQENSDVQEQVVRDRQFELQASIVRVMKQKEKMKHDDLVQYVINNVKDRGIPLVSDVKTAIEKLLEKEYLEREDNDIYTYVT

| binding result (6×His-MBP-Raf1) | binding result [1] | Binder |
| --- | --- | --- |
| binds | binds | Clr4N-Set2 (Clr4 chromodomain-hinge fused to the SET domain of S. pombe Set2) (other, UniProt O60016 1-192, looked up, Clr4, S. pombe, chromodomain and hinge region, amino acids 1-192 (GST-Clr4 ΔSET); Set2 H3K36 methyltransferase, S. pombe, SET domain, amino acids 90-330, fused to the C-terminus of Clr4 ΔSET; also called GST-Clr4 CD-Hinge-Set2; GST-Clr4N-Set2) MSPKQEEYEVERIVDEKLDRNGAVKLYRIRWLNYSSRSDTWEPPENLSGCSAVLAEWKRRKRRLKGSNSDSDSPHHASNPHPNSRQKHQHQTSKSVPRSQRFSRELNVKKENKKVFSSQTTKRQSRKQSTALTTNDTSIILDDSLHTNSKKLGKTRNEVKEESQKRELVSNSIKEATSPKTSSILTKPRNPSLFHHLDSAKDKALTTFEEIQECQYASANIGKPPENEAMICDCRPHWVDGVNVACGHGSNCINRMTSIECTDEDNVCGPSCQNQRFQRHEFAKVDVFLTEKKGFGLRADANLPKDTFVYEYIGEVIPEQKFRKRMRQYDSEGIKHFYFMMLQKGEYIDATKRGSLARFCNHSCRPNCYVDKWMVGDKLRMGIFCKRDIIRGEELTFDYNVDRYGAQAQPCYCGEPCCVGYIGGKTQTEAQSK |
| binds |  | Clr4 ΔSET (amino acids 1–192) (domain or fragment, S. pombe, UniProt O60016 1-192, looked up, Clr4, S. pombe, chromodomain and hinge region, amino acids 1-192; also called GST-Clr4 ΔSET) MSPKQEEYEVERIVDEKLDRNGAVKLYRIRWLNYSSRSDTWEPPENLSGCSAVLAEWKRRKRRLKGSNSDSDSPHHASNPHPNSRQKHQHQTSKSVPRSQRFSRELNVKKENKKVFSSQTTKRQSRKQSTALTTNDTSIILDDSLHTNSKKLGKTRNEVKEESQKRELVSNSIKEATSPKTSSILTKPRNPS |
